Source: US20250368745A1 (published 2025)

B1: SA301a HC-G97P (antibody, name in Kabat numbering, V domains shown)
VH: QVQLQESGPGLVKPSQTLSLTCTVSGYSITSDYNSHWIRQPPGKGLEWIGYIHYSGSTNYNPSLKSRVTISRDTSKNQFSLKLSSVTAADTAVYYCARNYPSIYVNYFDYWGQGTLVTVSS
VL: EIVLTQSPATLSLSPGERATLSCSASSSVSYMYWYQQKPGQAPRPLIYRTSNLASGIPARFSGSGSGTDFTLTISSLEPEDFAVYYCQQYHSYPTFGGGTKVEIK
notes: IgG1 kappa
B2: SA301a HC-Y96E (antibody, name in Kabat numbering, V domains shown)
VH: QVQLQESGPGLVKPSQTLSLTCTVSGYSITSDYNSHWIRQPPGKGLEWIGYIHYSGSTNYNPSLKSRVTISRDTSKNQFSLKLSSVTAADTAVYYCARNEGSIYVNYFDYWGQGTLVTVSS
VL: EIVLTQSPATLSLSPGERATLSCSASSSVSYMYWYQQKPGQAPRPLIYRTSNLASGIPARFSGSGSGTDFTLTISSLEPEDFAVYYCQQYHSYPTFGGGTKVEIK
notes: IgG1 kappa
B3: SA301a HC-S98Y (antibody, name in Kabat numbering, V domains shown)
VH: QVQLQESGPGLVKPSQTLSLTCTVSGYSITSDYNSHWIRQPPGKGLEWIGYIHYSGSTNYNPSLKSRVTISRDTSKNQFSLKLSSVTAADTAVYYCARNYGYIYVNYFDYWGQGTLVTVSS
VL: EIVLTQSPATLSLSPGERATLSCSASSSVSYMYWYQQKPGQAPRPLIYRTSNLASGIPARFSGSGSGTDFTLTISSLEPEDFAVYYCQQYHSYPTFGGGTKVEIK
notes: IgG1 kappa
B4: SA301a HC-S98H (antibody, name in Kabat numbering, V domains shown)
VH: QVQLQESGPGLVKPSQTLSLTCTVSGYSITSDYNSHWIRQPPGKGLEWIGYIHYSGSTNYNPSLKSRVTISRDTSKNQFSLKLSSVTAADTAVYYCARNYGHIYVNYFDYWGQGTLVTVSS
VL: EIVLTQSPATLSLSPGERATLSCSASSSVSYMYWYQQKPGQAPRPLIYRTSNLASGIPARFSGSGSGTDFTLTISSLEPEDFAVYYCQQYHSYPTFGGGTKVEIK
notes: IgG1 kappa
B5: SA301a HC-S98D (antibody, name in Kabat numbering, V domains shown)
VH: QVQLQESGPGLVKPSQTLSLTCTVSGYSITSDYNSHWIRQPPGKGLEWIGYIHYSGSTNYNPSLKSRVTISRDTSKNQFSLKLSSVTAADTAVYYCARNYGDIYVNYFDYWGQGTLVTVSS
VL: EIVLTQSPATLSLSPGERATLSCSASSSVSYMYWYQQKPGQAPRPLIYRTSNLASGIPARFSGSGSGTDFTLTISSLEPEDFAVYYCQQYHSYPTFGGGTKVEIK
notes: IgG1 kappa
B6: SA301a HC-S98A (antibody, name in Kabat numbering, V domains shown)
VH: QVQLQESGPGLVKPSQTLSLTCTVSGYSITSDYNSHWIRQPPGKGLEWIGYIHYSGSTNYNPSLKSRVTISRDTSKNQFSLKLSSVTAADTAVYYCARNYGAIYVNYFDYWGQGTLVTVSS
VL: EIVLTQSPATLSLSPGERATLSCSASSSVSYMYWYQQKPGQAPRPLIYRTSNLASGIPARFSGSGSGTDFTLTISSLEPEDFAVYYCQQYHSYPTFGGGTKVEIK
notes: IgG1 kappa
B7: SA301a HC-S98T (antibody, name in Kabat numbering, V domains shown)
VH: QVQLQESGPGLVKPSQTLSLTCTVSGYSITSDYNSHWIRQPPGKGLEWIGYIHYSGSTNYNPSLKSRVTISRDTSKNQFSLKLSSVTAADTAVYYCARNYGTIYVNYFDYWGQGTLVTVSS
VL: EIVLTQSPATLSLSPGERATLSCSASSSVSYMYWYQQKPGQAPRPLIYRTSNLASGIPARFSGSGSGTDFTLTISSLEPEDFAVYYCQQYHSYPTFGGGTKVEIK
notes: IgG1 kappa
B8: SA301a HC-S98I (antibody, name in Kabat numbering, V domains shown)
VH: QVQLQESGPGLVKPSQTLSLTCTVSGYSITSDYNSHWIRQPPGKGLEWIGYIHYSGSTNYNPSLKSRVTISRDTSKNQFSLKLSSVTAADTAVYYCARNYGIIYVNYFDYWGQGTLVTVSS
VL: EIVLTQSPATLSLSPGERATLSCSASSSVSYMYWYQQKPGQAPRPLIYRTSNLASGIPARFSGSGSGTDFTLTISSLEPEDFAVYYCQQYHSYPTFGGGTKVEIK
notes: IgG1 kappa
B9: SA301a HC-N95Q (antibody, name in Kabat numbering, V domains shown)
VH: QVQLQESGPGLVKPSQTLSLTCTVSGYSITSDYNSHWIRQPPGKGLEWIGYIHYSGSTNYNPSLKSRVTISRDTSKNQFSLKLSSVTAADTAVYYCARQYGSIYVNYFDYWGQGTLVTVSS
VL: EIVLTQSPATLSLSPGERATLSCSASSSVSYMYWYQQKPGQAPRPLIYRTSNLASGIPARFSGSGSGTDFTLTISSLEPEDFAVYYCQQYHSYPTFGGGTKVEIK
notes: IgG1 kappa
B10: SA301a HC-S98P (antibody, name in Kabat numbering, V domains shown)
VH: QVQLQESGPGLVKPSQTLSLTCTVSGYSITSDYNSHWIRQPPGKGLEWIGYIHYSGSTNYNPSLKSRVTISRDTSKNQFSLKLSSVTAADTAVYYCARNYGPIYVNYFDYWGQGTLVTVSS
VL: EIVLTQSPATLSLSPGERATLSCSASSSVSYMYWYQQKPGQAPRPLIYRTSNLASGIPARFSGSGSGTDFTLTISSLEPEDFAVYYCQQYHSYPTFGGGTKVEIK
notes: IgG1 kappa
B11: SA301a HC-N95A (antibody, name in Kabat numbering, V domains shown)
VH: QVQLQESGPGLVKPSQTLSLTCTVSGYSITSDYNSHWIRQPPGKGLEWIGYIHYSGSTNYNPSLKSRVTISRDTSKNQFSLKLSSVTAADTAVYYCARAYGSIYVNYFDYWGQGTLVTVSS
VL: EIVLTQSPATLSLSPGERATLSCSASSSVSYMYWYQQKPGQAPRPLIYRTSNLASGIPARFSGSGSGTDFTLTISSLEPEDFAVYYCQQYHSYPTFGGGTKVEIK
notes: IgG1 kappa
B12: SA301a HC-Y96A (antibody, name in Kabat numbering, V domains shown)
VH: QVQLQESGPGLVKPSQTLSLTCTVSGYSITSDYNSHWIRQPPGKGLEWIGYIHYSGSTNYNPSLKSRVTISRDTSKNQFSLKLSSVTAADTAVYYCARNAGSIYVNYFDYWGQGTLVTVSS
VL: EIVLTQSPATLSLSPGERATLSCSASSSVSYMYWYQQKPGQAPRPLIYRTSNLASGIPARFSGSGSGTDFTLTISSLEPEDFAVYYCQQYHSYPTFGGGTKVEIK
notes: IgG1 kappa
B13: SA301a HC-G97R (antibody, name in Kabat numbering, V domains shown)
VH: QVQLQESGPGLVKPSQTLSLTCTVSGYSITSDYNSHWIRQPPGKGLEWIGYIHYSGSTNYNPSLKSRVTISRDTSKNQFSLKLSSVTAADTAVYYCARNYRSIYVNYFDYWGQGTLVTVSS
VL: EIVLTQSPATLSLSPGERATLSCSASSSVSYMYWYQQKPGQAPRPLIYRTSNLASGIPARFSGSGSGTDFTLTISSLEPEDFAVYYCQQYHSYPTFGGGTKVEIK
notes: IgG1 kappa
B14: SA301a HC-N95G (antibody, name in Kabat numbering, V domains shown)
VH: QVQLQESGPGLVKPSQTLSLTCTVSGYSITSDYNSHWIRQPPGKGLEWIGYIHYSGSTNYNPSLKSRVTISRDTSKNQFSLKLSSVTAADTAVYYCARGYGSIYVNYFDYWGQGTLVTVSS
VL: EIVLTQSPATLSLSPGERATLSCSASSSVSYMYWYQQKPGQAPRPLIYRTSNLASGIPARFSGSGSGTDFTLTISSLEPEDFAVYYCQQYHSYPTFGGGTKVEIK
notes: IgG1 kappa
B15: SA301a HC-G97V (antibody, name in Kabat numbering, V domains shown)
VH: QVQLQESGPGLVKPSQTLSLTCTVSGYSITSDYNSHWIRQPPGKGLEWIGYIHYSGSTNYNPSLKSRVTISRDTSKNQFSLKLSSVTAADTAVYYCARNYVSIYVNYFDYWGQGTLVTVSS
VL: EIVLTQSPATLSLSPGERATLSCSASSSVSYMYWYQQKPGQAPRPLIYRTSNLASGIPARFSGSGSGTDFTLTISSLEPEDFAVYYCQQYHSYPTFGGGTKVEIK
notes: IgG1 kappa
B16: SA301a HC-G97T (antibody, name in Kabat numbering, V domains shown)
VH: QVQLQESGPGLVKPSQTLSLTCTVSGYSITSDYNSHWIRQPPGKGLEWIGYIHYSGSTNYNPSLKSRVTISRDTSKNQFSLKLSSVTAADTAVYYCARNYTSIYVNYFDYWGQGTLVTVSS
VL: EIVLTQSPATLSLSPGERATLSCSASSSVSYMYWYQQKPGQAPRPLIYRTSNLASGIPARFSGSGSGTDFTLTISSLEPEDFAVYYCQQYHSYPTFGGGTKVEIK
notes: IgG1 kappa
B17: SA301a HC-S98K (antibody, name in Kabat numbering, V domains shown)
VH: QVQLQESGPGLVKPSQTLSLTCTVSGYSITSDYNSHWIRQPPGKGLEWIGYIHYSGSTNYNPSLKSRVTISRDTSKNQFSLKLSSVTAADTAVYYCARNYGKIYVNYFDYWGQGTLVTVSS
VL: EIVLTQSPATLSLSPGERATLSCSASSSVSYMYWYQQKPGQAPRPLIYRTSNLASGIPARFSGSGSGTDFTLTISSLEPEDFAVYYCQQYHSYPTFGGGTKVEIK
notes: IgG1 kappa
B18: SA301a HC-S98Q (antibody, name in Kabat numbering, V domains shown)
VH: QVQLQESGPGLVKPSQTLSLTCTVSGYSITSDYNSHWIRQPPGKGLEWIGYIHYSGSTNYNPSLKSRVTISRDTSKNQFSLKLSSVTAADTAVYYCARNYGQIYVNYFDYWGQGTLVTVSS
VL: EIVLTQSPATLSLSPGERATLSCSASSSVSYMYWYQQKPGQAPRPLIYRTSNLASGIPARFSGSGSGTDFTLTISSLEPEDFAVYYCQQYHSYPTFGGGTKVEIK
notes: IgG1 kappa
B19: SA301a HC-S98G (antibody, name in Kabat numbering, V domains shown)
VH: QVQLQESGPGLVKPSQTLSLTCTVSGYSITSDYNSHWIRQPPGKGLEWIGYIHYSGSTNYNPSLKSRVTISRDTSKNQFSLKLSSVTAADTAVYYCARNYGGIYVNYFDYWGQGTLVTVSS
VL: EIVLTQSPATLSLSPGERATLSCSASSSVSYMYWYQQKPGQAPRPLIYRTSNLASGIPARFSGSGSGTDFTLTISSLEPEDFAVYYCQQYHSYPTFGGGTKVEIK
notes: IgG1 kappa
B20: SA301a HC-G97Q (antibody, name in Kabat numbering, V domains shown)
VH: QVQLQESGPGLVKPSQTLSLTCTVSGYSITSDYNSHWIRQPPGKGLEWIGYIHYSGSTNYNPSLKSRVTISRDTSKNQFSLKLSSVTAADTAVYYCARNYQSIYVNYFDYWGQGTLVTVSS
VL: EIVLTQSPATLSLSPGERATLSCSASSSVSYMYWYQQKPGQAPRPLIYRTSNLASGIPARFSGSGSGTDFTLTISSLEPEDFAVYYCQQYHSYPTFGGGTKVEIK
notes: IgG1 kappa
B21: SA301a HC-N95R (antibody, name in Kabat numbering, V domains shown)
VH: QVQLQESGPGLVKPSQTLSLTCTVSGYSITSDYNSHWIRQPPGKGLEWIGYIHYSGSTNYNPSLKSRVTISRDTSKNQFSLKLSSVTAADTAVYYCARRYGSIYVNYFDYWGQGTLVTVSS
VL: EIVLTQSPATLSLSPGERATLSCSASSSVSYMYWYQQKPGQAPRPLIYRTSNLASGIPARFSGSGSGTDFTLTISSLEPEDFAVYYCQQYHSYPTFGGGTKVEIK
notes: IgG1 kappa
B22: SA301a HC-S98N (antibody, name in Kabat numbering, V domains shown)
VH: QVQLQESGPGLVKPSQTLSLTCTVSGYSITSDYNSHWIRQPPGKGLEWIGYIHYSGSTNYNPSLKSRVTISRDTSKNQFSLKLSSVTAADTAVYYCARNYGNIYVNYFDYWGQGTLVTVSS
VL: EIVLTQSPATLSLSPGERATLSCSASSSVSYMYWYQQKPGQAPRPLIYRTSNLASGIPARFSGSGSGTDFTLTISSLEPEDFAVYYCQQYHSYPTFGGGTKVEIK
notes: IgG1 kappa

Each binder was assayed against T1, human IL-18BP (human, UniProt O95998 31-194) (assay: BLI, apparent KD).
T1 construct: UniProt printed as 095998; also called hIL-18BP
T1 sequence: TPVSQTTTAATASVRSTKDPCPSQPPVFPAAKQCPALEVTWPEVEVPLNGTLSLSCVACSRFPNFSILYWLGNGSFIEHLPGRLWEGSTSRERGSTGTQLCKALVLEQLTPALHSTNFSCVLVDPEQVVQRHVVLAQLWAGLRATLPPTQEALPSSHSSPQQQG
Binder B1 has a Kd of 1.36 nM.
B2 showed a Kd of 0.31 nM.
Binder B3 has a Kd of 0.02 nM.
In the case of B4, the Kd is reported as 6.42 nM.
Work on B5 yielded a Kd of 0.99 nM.
Work on B6 yielded a Kd of 2.29 nM.
Work on B7 yielded a Kd of 26.9 nM.
B8 showed a Kd of 2.1 nM.
With B9 the Kd was 5.33 nM.
Work on B10 yielded a Kd of 0.55 nM.
Work on B11 yielded a Kd of 46.1 nM.
Work on B12 yielded a Kd of 0.47 nM.
Work on B13 yielded a Kd of 25.1 nM.
B14 showed a Kd of 0.17 nM.
Work on B15 yielded a Kd of 4.96 nM.
In the case of B16, the Kd is reported as 0.01 nM.
With B17 the Kd was 5.41 nM.
B18 showed a Kd of 12.3 nM.
B19 showed a Kd of 2.57 nM.
With B20 the Kd was 7.04 nM.
Work on B21 yielded a Kd of 0.02 nM.
B22 showed a Kd of 2.98 nM.
